Measured values published in the supplement of paper PMC7125110.
± gives the standard error. Fewer inactive variants are shown than the library holds.

B1: glmS ribozyme (parent)
chain: AUAAAAGCGCCAGAACUACAGAAAUGUAGUUGACGAGGAGGAGGUUUAUCGAAUUUUCGGCGGAUGCCUCCAAA

Assays:
Details in all cases: with glucosamine-6-phosphate
glucosamine-6-phosphate [1] = variants of: B1; assay: self-cleavage kobs at 640 uM GlcN6P; higher = faster cleavage; RNA array
In short: (§1)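 Tracking of barcoded ribozyme variants used a hybridised Cy3 probe at 37 °C, after in situ transcription by E. coli RNA polymerase on sequenced MiSeq chips. The flowed solution held 40 μM to 10 mM glucosamine-6-phosphate in HEPES/KCl/Mg(OAc)2 buffer, and imaging ran over ~14 h. kobs was taken from exponential decay fits of normalised per-tile medians, and kcat and KM from weighted Michaelis–Menten fits.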

glucosamine-6-phosphate [2] = variants of: B1; assay: self-cleavage kobs at 2500 uM GlcN6P; higher = faster cleavage; RNA array
In short: as §1

glucosamine-6-phosphate [3] = variants of: B1; assay: self-cleavage kobs at 10000 uM GlcN6P; higher = faster cleavage; RNA array
In short: as §1

Row | Variant | self-cleavage kobs at 640 uM GlcN6P (glucosamine-6-phosphate [1]) [s⁻¹] | self-cleavage kobs at 2500 uM GlcN6P (glucosamine-6-phosphate [2]) [s⁻¹] | self-cleavage kobs at 10000 uM GlcN6P (glucosamine-6-phosphate [3]) [s⁻¹]
1 | A15U C50G G66C C71G | 7.22e-05 ± 2.8e-05 | 9.27e-05 ± 3e-05 | –
2 | G7U C67U C71G | 7.36e-05 ± 2.2e-05 | – | –
3 | U30A A33G A36C | < 1e-05 | – | –
4 | A12G G37A A48G G63C | < 1e-05 | – | –
5 | C16G A48U C50G C70A | 5.34e-05 ± 2.6e-05 | – | –
6 | G7A G38C G59C | < 1e-05 | – | –
7 | C8U U30A A39U | < 1e-05 | < 1e-05 | –
8 | C11U C16A U30A G32C U69G | 0.000926 ± 0.00019 | – | –
9 | C8U A42G A48C | < 1e-05 | < 1e-05 | –
10 | G43A U47A A53C G59C | < 1e-05 | < 1e-05 | –
11 | C8G U31G C50G | 7.77e-05 ± 3.6e-05 | – | –
12 | C10U G38U U69A | 8.22e-05 ± 2.4e-05 | – | –
13 | G60U G66C C70U | < 1e-05 | – | –
14 | C8G C11G A14C A39G C50G | 8.19e-05 ± 2.8e-05 | – | –
15 | G37A U54C C70U | 0.000626 ± 0.00016 | 0.00117 ± 0.00025 | –
16 | C34A U46C A53G G60C C61A | < 1e-05 | < 1e-05 | –

Row | Variant | self-cleavage kobs at 640 uM GlcN6P (glucosamine-6-phosphate [1]) [s⁻¹] | self-cleavage kobs at 2500 uM GlcN6P (glucosamine-6-phosphate [2]) [s⁻¹] | self-cleavage kobs at 10000 uM GlcN6P (glucosamine-6-phosphate [3]) [s⁻¹]
17 | G29A U30A U31C | 0.000152 ± 2.2e-05 | 0.000309 ± 6.5e-05 | –
18 | C10G C11A A39U | < 1e-05 | < 1e-05 | –
19 | C11U U47A A48C C61A C70U C71A | < 1e-05 | < 1e-05 | –
20 | A12G U55A | 0.000161 ± 2.2e-05 | 0.000248 ± 4e-05 | 0.00094 ± 8.5e-05
21 | U31C G41A A48U C67G | < 1e-05 | < 1e-05 | –
22 | A6U G40C G44C C50U | < 1e-05 | < 1e-05 | –
23 | C8G G32C A33U C67U | < 1e-05 | < 1e-05 | –
24 | A12U A48C C58A | < 1e-05 | < 1e-05 | –
25 | G40A A42G U46A | 0.000129 ± 4.5e-05 | 0.000599 ± 0.0003 | 0.00096 ± 0.00023
26 | G41A U65G | < 1e-05 | – | –
27 | A12G U54A | 0.000125 ± 2.3e-05 | 0.000221 ± 4.5e-05 | 0.000878 ± 0.00013
28 | G13C A15C C61U A64U C67A | < 1e-05 | – | –
29 | U27G A28U U30G C68A | < 1e-05 | < 1e-05 | –
30 | C11A G37U A64G | < 1e-05 | – | –
31 | G7A C16G U30G G44U A52G | < 1e-05 | < 1e-05 | –
